Data on two proteins can be found in patent publication US20260308536A1, “NOVEL URICASE VARIANTS AND METHODS OF USE THEREOF” (priority 2023, published 2026).

Positions count from the first letter of the chain named. Numbers in names are those of the source.

Substrate in data set [1]: O=c1[nH]c(=O)c2[nH]c(=O)[nH]c2[nH]1
Put plainly: Michaelis-Menten kinetics, MedU_1B7. The class given is biochemical, Arthrobacter globiformis. The settings on record: other: role: substrate; non-PEGylated; Table 8B; pH 10.5. As to the method:
(§1) Select Arthrobacter globiformis uricase variants MedU_1B7, MedU_5B8, MedU_1C2, MedU_5C9, MedU_5E6, MedU_5E9, and MedU_IF1 were subject to further characterization by comparing their expression yields, Michaelis-Menten kinetics parameters, and thermostability measured by temperatures at which 50% of normal activity was lost determined by heat stress activity assay, with those of the wild type Arthrobacter globiformis uricase. The expression yields were determined as described above in the “Methods” section. The Michaelis-Menten kinetics parameters kcat and KM, and temperatures at which 50% of normal activity was lost (i.e., 50% thermal inactivation temperatures, referred to as TI50 (° C.)) measured by heat stress activity assay were likewise determined using the methods described in Example 1.

Substrate in data set [2]: O=c1[nH]c(=O)c2[nH]c(=O)[nH]c2[nH]1
Put plainly: Michaelis-Menten kinetics, MedU_1C2. The class given is biochemical, Arthrobacter globiformis. The settings on record: other: role: substrate; non-PEGylated; Table 8B; pH 10.5. As for the experimental part: as §1

B1: Arthrobacter globiformis uricase variant MedU_1B7, A35D/A83G/A145T/A148S/A204G/A213G/I243V/K244S, SEQ ID NO: 77 (Arthrobacter globiformis; … (protein)
chain: MTATAETSTGTKVVLGQNQYGKAEVRLVKVTRNTDRHEIQDLNVTSQLSGDFEAAHTAGDNAHVVATDTQKNTVYAFARDGFGTTEEFLLRLGKHFTEGFDWVTGGRWAAQQFFWDRINDHDHAFSRNKSEVRTAVLEISGSEQTIVSGIEGLTVLKSTGSEFHGFPRDKYTTLQETTDRILATDVSARWRYNTVEVDFDAVYGSVRGLLLKGFAETHSLALQQTMYEMGRAVIETHPEIDEVSMSLPNKHHFLVDLQPFGQDNPNEVFYAADRPYGLIEATIQREGSRAD
notes: R49S backbone, 291 aa; pET-26b(+), C-terminal His6, E. coli; non-PEGylated
Regarding B1, in data set [1], the Michaelis-Menten constant (Km) is 440 ± 90 µM and the kcat is 3.8 ± 0.2 s⁻¹.

B2: Arthrobacter globiformis uricase variant MedU_1C2, A145T/V195E/I243V/K244S/K250N/Y270H, SEQ ID NO: 80 (Arthrobacter globiformis; … (protein)
chain: B1 chain with D35A, G83A, S148A, V195E, G204A, G213A, K250N, Y270H
notes: as for B1
Turning to B2, in data set [2], the Km is 500 ± 90 µM and the kcat amounted to 3.4 ± 0.2 s⁻¹.
